T1: human complement C1s enzyme (activated C1s) (human, UniProt P09871 16-437; P09871 438-688)
T1 sequence 1: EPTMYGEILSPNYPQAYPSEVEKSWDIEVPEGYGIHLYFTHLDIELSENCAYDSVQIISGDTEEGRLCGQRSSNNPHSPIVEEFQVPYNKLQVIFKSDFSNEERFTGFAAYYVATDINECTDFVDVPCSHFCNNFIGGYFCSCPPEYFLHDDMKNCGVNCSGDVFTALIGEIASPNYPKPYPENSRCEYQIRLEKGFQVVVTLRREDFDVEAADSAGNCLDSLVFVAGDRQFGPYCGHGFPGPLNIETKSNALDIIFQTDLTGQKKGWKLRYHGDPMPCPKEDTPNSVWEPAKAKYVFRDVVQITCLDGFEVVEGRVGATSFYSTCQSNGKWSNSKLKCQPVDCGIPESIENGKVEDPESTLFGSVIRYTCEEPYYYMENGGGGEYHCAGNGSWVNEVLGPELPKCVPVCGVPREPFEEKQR
T1 sequence 2: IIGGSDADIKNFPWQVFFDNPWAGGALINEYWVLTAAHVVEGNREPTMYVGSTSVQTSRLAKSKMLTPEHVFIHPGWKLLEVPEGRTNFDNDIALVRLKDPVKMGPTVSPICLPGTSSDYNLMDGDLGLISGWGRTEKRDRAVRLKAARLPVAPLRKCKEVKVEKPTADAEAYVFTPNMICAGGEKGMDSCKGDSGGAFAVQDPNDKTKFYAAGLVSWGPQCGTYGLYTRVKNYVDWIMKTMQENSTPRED


Columns and labels:
[1] = target: T1, human complement C1s enzyme (activated …); assay: cell-based or functional assay
[2] = target: T1, human complement C1s enzyme (activated …); assay: cell-based or functional assay; remark: listed apart in the source
[3] = target: T1, human complement C1s enzyme (activated …); assay: BLI (Octet), biotinylated target on streptavidin sensor
[4] = target: T1, human complement C1s enzyme (activated …); assay: SPR, purified protein
[5] = target: T1, human complement C1s enzyme (activated …); assay: cell-based or functional assay; remark: listed apart in the source
[6] = target: T1, human complement C1s enzyme (activated …); assay: BLI (Octet), biotinylated target on streptavidin sensor; remark: listed apart in the source
[7] = target: T1, human complement C1s enzyme (activated …); assay: cell-based or functional assay; remark: listed apart in the source
[8] = target: cynomolgus C1s (cynomolgus); assay: method not given
[9] = target: T1, human complement C1s enzyme (activated …); assay: BLI (Octet), biotinylated target on streptavidin sensor; partially purified mixture of the two scFabs from construct #9
From the text: (§1) Bio-layer interferometry (BLI) was used to assess the recombinant proteins' target engagement to and binding affinity for complement C1s enzyme (active C1s or “C1s” herein) and factor Bb (Bb) (Complement Technology, Tyler, TX, USA). C1s and Bb were biotinylated with EZ-Link™ Sulfo-NHS-LC-LC-Biotin (Thermo Fisher, Waltham, MA, USA) according to manufacturer instructions. Biotinylated C1s or Bb was loaded on Octet® Streptavidin (SA) Biosensors (Sartorius, Göttingen, Germany), followed by a concentration range of purified proteins. To assess dual target engagement, biotinylated active C1s or Bb was loaded onto sensors, followed by purified proteins (“first association phase”), followed by the non-captured complement target (Bb or active C1s, non-biotinylated; “second association phase”). The assays were performed at 30° C. using PBS with 0.1% Tween 20 as a diluent (FIG. 3).
The third expression construct, construct #9 (FIGS. 2B and 21), is composed of a bidirectional minCBA promoter driving expression of separate transcripts encoding human codon-optimized αBb scFab or αC1s scFab [αC1s scFab+αBb scFab], each followed by a bGH poly (A) signal.

[10] = target: T1, human complement C1s enzyme (activated …); assay: BLI (Octet), biotinylated target on streptavidin sensor; mixture of the two scFabs from construct #9; mixture of the two scFabs from construct #9
[11] = target: T1, human complement C1s enzyme (activated …); assay: cell-based or functional assay; remark: listed apart in the source
[12] = target: T1, human complement C1s enzyme (activated …); assay: cell-based or functional assay; remark: listed apart in the source
[13] = target: T1, human complement C1s enzyme (activated …); assay: BLI (Octet), biotinylated target on streptavidin sensor; mixture of the two scFabs from construct #9
From the text: as §1

[14] = target: T1, human complement C1s enzyme (activated …); assay: method not given
[15] = target: T1, human complement C1s enzyme (activated …); assay: BLI (Octet), biotinylated target on streptavidin sensor; protein purified to >98%
From the text: as §1

Row | Binder | IC50 CP (Wieslab) [1] [nM] | Wieslab classical pathway IC50 [2] [nM] | Kd [3] [nM] | Kd [4] [nM] | IC50 (nM), complement activation with CP and AP activated simultaneously in vitro [5] [nM] | Kd [6] [nM] | CP IC50 (Wieslab) [7] [nM] | IC50 CP (Wieslab), mixture of scFabs from construct #9 [1] [nM] | Kd [8] [nM] | Kd [9] [nM] | Kd [10] [nM] | IC50 CP Wieslab EIA [11] [nM] | Wieslab CP IC50 of #9-derived fragments, fold of purified anti-C1s Fab [12] [fold] | koff [13] [s⁻¹] | kon [13] [M⁻¹ s⁻¹] | Kd [14] [nM] | Kd [15] [nM] | CP IC50 (Wieslab), mixture of scFabs from construct #9 [7] [nM]
1 | parental anti-C1s Fab (Fab, V domains shown, also called Purified anti-C1s Fab) VH: QVQLVQSGAEVKKPGASVKLSCTASGFNIKDDYIHWVKQAPGQGLEWIGRIDPADGHTKYAPKFQVKVTITADTSTSTAYLELSSLRSEDTAVYYCARYGYGREVFDYWGQGTTVTVSS VL: DIVLTQSPDSLAVSLGERATISCKASQSVDYDGDSYMNWYQQKPGQPPKILIYDASNLESGIPARFSGSGSGTDFTLTISSLEPEDFAIYYCQQSNEDPWTFGGGTKVEIKR | 5.4 | 5.5 | 0.3 | 0.3 | 68.2 | 0.3 | 6 |  |  |  |  |  |  |  |  |  |  | 
2 | anti-C1s scFab (construct #2) (Fab, Single-chain Fab: LC-(G4S)7-HC (VH-CH1); there it stood in a mixture with the anti-Bb scFab; also called αC1s scFab; Purified anti-C1s scFab) DIVLTQSPDSLAVSLGERATISCKASQSVDYDGDSYMNWYQQKPGQPPKILIYDASNLESGIPARFSGSGSGTDFTLTISSLEPEDFAIYYCQQSNEDPWTFGGGTKVEIKRTVAAPSVFIFPPSDEQLKSGTASVVCLLNNFYPREAKVQWKVDNALQSGNSQESVTEQDSKDSTYSLSSTLTLSKADYEKHKVYACEVTHQGLSSPVTKSFNRGECGGGGSGGGGSGGGGSGGGGSGGGGSGGGGSGGGGSQVQLVQSGAEVKKPGASVKLSCTASGFNIKDDYIHWVKQAPGQGLEWIGRIDPADGHTKYAPKFQVKVTITADTSTSTAYLELSSLRSEDTAVYYCARYGYGREVFDYWGQGTTVTVSSASTKGPSVFPLAPCSRSTSESTAALGCLVKDYFPEPVTVSWNSGALTSGVHTFPAVLQSSGLYSLSSVVTVPSSSLGTKTYTCNVDHKPSNTKVDKRV | 7.2 | 6.7 |  | 0.3 | 97.3 | 0.3 |  | 157 | 0.016 | 1.8 | 1.9 | 7.2 | ~25 | 0.00028 | 150000 | 0.34 | 0.3 | 157

Source: patent publication US20240401082A1 (Sanofi, published 2024)
